The supplement of paper PMC7877785
± gives the uncertainty stated by the source.

Assay: self-splicing fitness, log relative to wild type (ln ratio); higher = more splicing; Tetrahymena group I intron in knt gene, E. coli kanamycin selection, DiMSum; sequences stand for … in CUCUCU…GGAGGGAAAAGUUAUCAGGCAUGCACCUGGUAGCUAGUCUUUAAACCAAUAGAUUGCAUCGGUUUAAAAGGCAAGACCGUCAAAUUGCGGGAAAGGGGUCAACAGCCGUUCAGUACCAAGUCUCAGGGGAAACUUUGAGAUGGCCUUGCAAAGGGUAUGGUAAUAAGCUGACGGACAUGGUCCUAACCACGCAGCCAAGUCCUAAGUCAACAGAUCUUCUGUUGAUAUGGAUGCAGUUCACAGACUAAAUGUCGGUCGGGGAAGAUGUAUUCUUCUCAUAAGAUAUAGUCGGACCUCUCCUUAAUGGGAGCUAGCGGAUGAAGUGAUGCAACACUGGAGCCGCUGGGAACUAAUUUGUAUGCGAAAGUAUAUUGAUUAGUUUUGGAGUACUCGUGGUCG
In short: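 The eight P1ex-region nucleotides of an intron in the knt kanamycin-resistance gene on pET-22b(+) were all randomised and the library put into E. coli BL21(DE3). Six replicate transformations were grown overnight at 37°C or 30°C on LB agar with or without 25 μg/mL kanamycin, together with 100 μg/mL carbenicillin, 50 μM IPTG and 0.2% rhamnose. Colonies were pooled and amplicon-sequenced on an Illumina HiSeq 2500. Fitness from DiMSum is the error-weighted combination of wild-type-normalised replicate fold changes, kanamycin over none.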

| Sequence | self-splicing fitness (ln) (30 °C) | self-splicing fitness (ln) (37 °C) |
| --- | --- | --- |
| AAGUAGCAAUAUUACGGUGU | -2.2 ± 0.09 | -1.23 ± 0.099 |
| AAGUAGCAAUAUUACGUAUU | -1.97 ± 0.11 | -1.07 ± 0.14 |
| AAGUAGCAAUAUUACGUCGA | -1.34 ± 0.1 | -1.07 ± 0.11 |
| AAGUAGCAAUAUUACGUCUC | -1.59 ± 0.12 | -0.405 ± 0.14 |
| AAGUAGCAAUAUUACGUCUG | -0.515 ± 0.086 | 0.168 ± 0.11 |
| AAGUAGCAAUAUUACGUGGA | -3.83 ± 0.26 | -2.14 ± 0.16 |
| AAUAAGCAAUAUUACGAAGG | -3.39 ± 0.48 | -2.04 ± 0.39 |
| AAUAAGCAAUAUUACGACCU | 0.104 ± 0.12 | 0.726 ± 0.16 |
| AAUAAGCAAUAUUACGACUG | -0.872 ± 0.088 | -1.18 ± 0.11 |
| AAUAAGCAAUAUUACGAUCU | 0.041 ± 0.069 | 0.493 ± 0.087 |
| AAUAAGCAAUAUUACGCAAC | -2.79 ± 0.3 | -0.975 ± 0.2 |
| AAUAAGCAAUAUUACGCACA | -0.471 ± 0.099 | 0.253 ± 0.13 |
| AAUAAGCAAUAUUACGCAUC | -2.56 ± 0.12 | -1.66 ± 0.15 |
| AAUAAGCAAUAUUACGCGGG | -2.62 ± 0.13 | -1.35 ± 0.14 |
| AAUAAGCAAUAUUACGCUCG | -0.686 ± 0.14 | 0.0576 ± 0.19 |
| AAUAAGCAAUAUUACGGAAG | -3.52 ± 0.28 | -1.86 ± 0.39 |
| AAUAAGCAAUAUUACGGAAU | -2.69 ± 0.15 | -0.645 ± 0.11 |
| AAUAAGCAAUAUUACGGACG | -0.851 ± 0.15 | -0.397 ± 0.15 |
| AAUAAGCAAUAUUACGGCGC | 0.251 ± 0.12 | -0.478 ± 0.13 |
| AAUAAGCAAUAUUACGGCUA | 0.107 ± 0.1 | 0.0369 ± 0.13 |
| AAUAAGCAAUAUUACGGUGA | -1.18 ± 0.093 | -0.256 ± 0.11 |
| AAUAAGCAAUAUUACGUACC | -0.867 ± 0.14 | -0.89 ± 0.15 |
| AAUAAGCAAUAUUACGUAGA | -1.51 ± 0.11 | -0.998 ± 0.13 |
| AAUAAGCAAUAUUACGUCCC | -0.502 ± 0.17 | 0.393 ± 0.26 |

| Sequence | self-splicing fitness (ln) (30 °C) | self-splicing fitness (ln) (37 °C) |
| --- | --- | --- |
| AAUAAGCAAUAUUACGUUAC | -3.62 ± 0.18 | -1.39 ± 0.14 |
| AAUCAGCAAUAUUACGAGAC | -3.64 ± 0.27 | -0.528 ± 0.12 |
| AAUCAGCAAUAUUACGAGGA | -2.13 ± 0.12 | -1.23 ± 0.11 |
| AAUCAGCAAUAUUACGAUGU | 0.218 ± 0.053 | 0.543 ± 0.08 |
| AAUCAGCAAUAUUACGCAAC | -1.32 ± 0.11 | -0.666 ± 0.13 |
| AAUCAGCAAUAUUACGCAGC | -1.36 ± 0.15 | -0.207 ± 0.14 |
| AAUCAGCAAUAUUACGCAUG | -0.409 ± 0.038 | 0.349 ± 0.058 |
| AAUCAGCAAUAUUACGCGCG | 0.0814 ± 0.079 | -0.098 ± 0.1 |
| AAUCAGCAAUAUUACGCGGG | -1.33 ± 0.095 | -1.42 ± 0.099 |
| AAUCAGCAAUAUUACGCGGU | -2.35 ± 0.12 | -1.14 ± 0.14 |
| AAUCAGCAAUAUUACGCUCA | 0.294 ± 0.074 | 0.323 ± 0.1 |
| AAUCAGCAAUAUUACGCUCU | -0.00647 ± 0.077 | 0.0812 ± 0.097 |
| AAUCAGCAAUAUUACGCUGA | -2.61 ± 0.17 | -1.76 ± 0.24 |
| AAUCAGCAAUAUUACGCUUC | -1.77 ± 0.069 | -0.398 ± 0.088 |
| AAUCAGCAAUAUUACGGACG | -0.448 ± 0.068 | 0.478 ± 0.12 |
| AAUCAGCAAUAUUACGGCUA | -0.0319 ± 0.079 | 0.406 ± 0.094 |
| AAUCAGCAAUAUUACGUACU | 0.336 ± 0.084 | 0.692 ± 0.11 |
| AAUCAGCAAUAUUACGUAUC | -0.504 ± 0.044 | 0.251 ± 0.068 |
| AAUCAGCAAUAUUACGUCAG | -1.86 ± 0.12 | -0.81 ± 0.12 |
| AAUCAGCAAUAUUACGUCUG | -1.16 ± 0.049 | -0.895 ± 0.065 |
| AAUCAGCAAUAUUACGUGGC | -3.57 ± 0.17 | -1.83 ± 0.12 |
| AAUCAGCAAUAUUACGUUGC | -3.97 ± 0.23 | -3.16 ± 0.22 |
| AAUGAGCAAUAUUACGACAC | -2.71 ± 0.31 | – |
| AAUGAGCAAUAUUACGACGA | -2.44 ± 0.34 | -3.22 ± 0.47 |

| Sequence | self-splicing fitness (ln) (30 °C) | self-splicing fitness (ln) (37 °C) |
| --- | --- | --- |
| AAUGAGCAAUAUUACGACGU | -1.13 ± 0.11 | -0.443 ± 0.12 |
| AAUGAGCAAUAUUACGAGGC | – | -3.11 ± 0.4 |
| AAUGAGCAAUAUUACGAUGU | -2.94 ± 0.15 | -1.97 ± 0.17 |
| AAUGAGCAAUAUUACGCAGU | -2.51 ± 0.2 | -3.29 ± 0.31 |
| AAUGAGCAAUAUUACGCCGA | -2.34 ± 0.3 | -1.75 ± 0.43 |
| AAUGAGCAAUAUUACGCUUA | -1.94 ± 0.14 | -0.919 ± 0.12 |
| AAUGAGCAAUAUUACGCUUG | -3.09 ± 0.17 | -2.11 ± 0.18 |
| AAUGAGCAAUAUUACGGAAC | -3.52 ± 0.47 | – |
| AAUGAGCAAUAUUACGGGCG | – | -3.07 ± 0.47 |
| AAUGAGCAAUAUUACGGUCC | -2.47 ± 0.45 | – |
| AAUGAGCAAUAUUACGUCAA | -2.4 ± 0.21 | -2.59 ± 0.46 |
| AAUGAGCAAUAUUACGUCAC | -2.93 ± 0.41 | -1.92 ± 0.29 |
| AAUGAGCAAUAUUACGUCCU | -1.45 ± 0.13 | -0.218 ± 0.12 |
| AAUGAGCAAUAUUACGUCUC | -2.96 ± 0.23 | -2.19 ± 0.24 |
| AAUGAGCAAUAUUACGUGGA | -3.35 ± 0.32 | -3.04 ± 0.35 |
| AAUGAGCAAUAUUACGUGGG | -4.39 ± 0.36 | -2.87 ± 0.21 |
| AAUGAGCAAUAUUACGUUCC | -2.71 ± 0.17 | -1.43 ± 0.2 |
| AAUUAGCAAUAUUACGACCG | -1.2 ± 0.13 | 0.0816 ± 0.21 |
| AAUUAGCAAUAUUACGAUAG | -3.1 ± 0.26 | -1.75 ± 0.18 |
| AAUUAGCAAUAUUACGCAAU | -2.4 ± 0.13 | -1.74 ± 0.17 |
| AAUUAGCAAUAUUACGCCGA | -1.34 ± 0.26 | -0.981 ± 0.21 |
| AAUUAGCAAUAUUACGCCUC | -1.22 ± 0.18 | -2.47 ± 0.25 |
| AAUUAGCAAUAUUACGCUGU | -1.44 ± 0.16 | -1.26 ± 0.2 |
| AAUUAGCAAUAUUACGGAAC | -2.77 ± 0.13 | -2.18 ± 0.2 |

| Sequence | self-splicing fitness (ln) (30 °C) | self-splicing fitness (ln) (37 °C) |
| --- | --- | --- |
| AAUUAGCAAUAUUACGGAUU | -2.2 ± 0.12 | -1.3 ± 0.14 |
| AAUUAGCAAUAUUACGGCAC | -1.11 ± 0.16 | -0.154 ± 0.21 |
| AAUUAGCAAUAUUACGGUAA | -2.72 ± 0.2 | -0.655 ± 0.22 |
| AAUUAGCAAUAUUACGGUAU | -1.29 ± 0.097 | -0.598 ± 0.11 |
| AAUUAGCAAUAUUACGGUUG | -2.53 ± 0.13 | -0.897 ± 0.13 |
| AAUUAGCAAUAUUACGUACU | -0.151 ± 0.089 | 0.263 ± 0.13 |
| AAUUAGCAAUAUUACGUAUG | -1.04 ± 0.12 | -1.13 ± 0.16 |
| AAUUAGCAAUAUUACGUCUU | 0.444 ± 0.091 | 0.46 ± 0.098 |
| AAUUAGCAAUAUUACGUGAG | -1.71 ± 0.077 | -0.654 ± 0.1 |
| AAUUAGCAAUAUUACGUGAU | -1.87 ± 0.13 | -1.56 ± 0.16 |
| AAUUAGCAAUAUUACGUUAU | -2.88 ± 0.18 | -1.11 ± 0.12 |
| AAUUAGCAAUAUUACGUUCC | -3 ± 0.22 | -1.32 ± 0.21 |
| AAUUAGCAAUAUUACGUUUC | -2.89 ± 0.23 | -1.57 ± 0.23 |
| ACAAAGCAAUAUUACGAAGG | -2.52 ± 0.087 | -1.75 ± 0.12 |
| ACAAAGCAAUAUUACGAAGU | -2.04 ± 0.12 | -2.06 ± 0.18 |
| ACAAAGCAAUAUUACGACAG | -1.34 ± 0.066 | -0.8 ± 0.084 |
| ACAAAGCAAUAUUACGAGGU | -4.39 ± 0.2 | -2.78 ± 0.18 |
| ACAAAGCAAUAUUACGAUCG | -0.241 ± 0.074 | 0.193 ± 0.095 |
| ACAAAGCAAUAUUACGCACG | -1.96 ± 0.12 | -0.724 ± 0.1 |
| ACAAAGCAAUAUUACGCCAA | -2.34 ± 0.24 | -1.86 ± 0.18 |
| ACAAAGCAAUAUUACGCCGC | -3.43 ± 0.31 | -1.52 ± 0.28 |
| ACAAAGCAAUAUUACGCGUG | -1.5 ± 0.043 | -0.274 ± 0.057 |
| ACAAAGCAAUAUUACGGACC | -1.02 ± 0.1 | -1.5 ± 0.15 |
| ACAAAGCAAUAUUACGGACU | -0.0658 ± 0.051 | 0.338 ± 0.079 |
